system: Escherichia coli TOP10; assay: shrunken log2 fold change of peptide-encoding DNA abundance (4.5 h post-induction vs induction); higher = less antimicrobial activity (less host growth inhibition); details: time post-induction: 4.5 h; library: site-saturation at positions 5, 18, 19, 20
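Note: peptides expressed intracellularly from a pBAD plasmid library in pooled LB shake-flask culture, induced with 0.3% L-arabinose, DNA abundance read by NGS, three biological replicates, DESeq2 with apeglm shrinkage.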

| Sequence | shrunken log2 fold change |
| --- | --- |
| RRIRDRPPRLPRPRPRPTISPRP | -0.0421 |
| RRIRARPPRLPRPRPRPNEVPRP | 0.0341 |
| RRIRDRPPRLPRPRPRPNWAPRP | 0.00788 |
| RRIRARPPRLPRPRPRPMRQPRP | 0.829 |
| RRIRDRPPRLPRPRPRPDKWPRP | -0.0651 |
| RRIRARPPRLPRPRPRPACFPRP | 0.736 |
| RRIRTRPPRLPRPRPRPWSGPRP | -0.187 |
| RRIRQRPPRLPRPRPRPTVLPRP | -0.0201 |
| RRIRCRPPRLPRPRPRPCKDPRP | -0.142 |
| RRIRPRPPRLPRPRPRPTSKPRP | 0.188 |
| RRIRRRPPRLPRPRPRPTDEPRP | 0.355 |
| RRIRGRPPRLPRPRPRPYMVPRP | -0.296 |
| RRIRVRPPRLPRPRPRPSCKPRP | -0.207 |
| RRIRSRPPRLPRPRPRPCWLPRP | 0.102 |
| RRIRTRPPRLPRPRPRPGKAPRP | -0.0369 |
| RRIRGRPPRLPRPRPRPEHCPRP | 0.549 |
| RRIRQRPPRLPRPRPRPCKTPRP | -0.01 |
| RRIRCRPPRLPRPRPRPRWHPRP | -0.00459 |
| RRIRYRPPRLPRPRPRPIMIPRP | -0.0191 |
| RRIRTRPPRLPRPRPRPFHLPRP | -0.0758 |
| RRIRCRPPRLPRPRPRPNCFPRP | -0.0988 |
| RRIRRRPPRLPRPRPRPQKIPRP | 0.0999 |
| RRIRPRPPRLPRPRPRPIVGPRP | -0.00131 |
| RRIRWRPPRLPRPRPRPEKNPRP | 0.686 |
| RRIRYRPPRLPRPRPRPVDPPRP | -0.0356 |

| Sequence | shrunken log2 fold change |
| --- | --- |
| RRIRDRPPRLPRPRPRPMDKPRP | -0.0384 |
| RRIRQRPPRLPRPRPRPEKSPRP | 0.287 |
| RRIRLRPPRLPRPRPRPVTVPRP | -0.128 |
| RRIRPRPPRLPRPRPRPIVCPRP | -0.228 |
| RRIRYRPPRLPRPRPRPDHPPRP | 0.0184 |
| RRIRCRPPRLPRPRPRPDHCPRP | 0.00334 |
| RRIRVRPPRLPRPRPRPFIQPRP | -0.449 |
| RRIRSRPPRLPRPRPRPFCPPRP | -0.31 |
| RRIRYRPPRLPRPRPRPCYNPRP | -0.857 |
| RRIRYRPPRLPRPRPRPVWPPRP | 9.23e-05 |
| RRIRRRPPRLPRPRPRPGPEPRP | 0.662 |
| RRIRFRPPRLPRPRPRPLMGPRP | -0.18 |
| RRIRFRPPRLPRPRPRPTSAPRP | 0.344 |
| RRIRFRPPRLPRPRPRPMCRPRP | -0.218 |
| RRIRARPPRLPRPRPRPCNYPRP | -0.178 |
| RRIRKRPPRLPRPRPRPVGWPRP | 0.897 |
| RRIRWRPPRLPRPRPRPVCWPRP | 0.758 |
| RRIRPRPPRLPRPRPRPWILPRP | -0.451 |
| RRIRFRPPRLPRPRPRPWYRPRP | -0.0778 |
| RRIRPRPPRLPRPRPRPYWYPRP | -0.958 |
| RRIRSRPPRLPRPRPRPGDTPRP | 1.51 |
| RRIRDRPPRLPRPRPRPVNVPRP | -0.96 |
| RRIRPRPPRLPRPRPRPMEHPRP | -0.0171 |
| RRIRNRPPRLPRPRPRPFQSPRP | -0.0983 |
| RRIRKRPPRLPRPRPRPQFHPRP | 0.119 |

| Sequence | shrunken log2 fold change |
| --- | --- |
| RRIRYRPPRLPRPRPRPTYLPRP | -0.824 |
| RRIRERPPRLPRPRPRPMKAPRP | -0.00245 |
| RRIRCRPPRLPRPRPRPQHMPRP | -0.74 |
| RRIRWRPPRLPRPRPRPGWGPRP | 0.534 |
| RRIRLRPPRLPRPRPRPHKTPRP | 0.0373 |
| RRIRLRPPRLPRPRPRPNFGPRP | 0.0635 |
| RRIRKRPPRLPRPRPRPWYLPRP | 0.0253 |
| RRIRQRPPRLPRPRPRPNKEPRP | 0.00917 |
| RRIRKRPPRLPRPRPRPYFWPRP | -0.0468 |
| RRIRYRPPRLPRPRPRPKFTPRP | -0.328 |
| RRIRPRPPRLPRPRPRPRRDPRP | 0.302 |
| RRIRQRPPRLPRPRPRPAYHPRP | -0.826 |
| RRIRERPPRLPRPRPRPEAGPRP | 0.0425 |
| RRIRYRPPRLPRPRPRPRPYPRP | -0.259 |
| RRIRRRPPRLPRPRPRPYKPPRP | 0.0267 |
| RRIRERPPRLPRPRPRPSTAPRP | -0.151 |
| RRIRPRPPRLPRPRPRPFGGPRP | 0.0321 |
| RRIRKRPPRLPRPRPRPAIYPRP | -0.109 |
| RRIRGRPPRLPRPRPRPFFCPRP | 0.471 |
| RRIRIRPPRLPRPRPRPWRDPRP | -0.0858 |
| RRIRHRPPRLPRPRPRPKMFPRP | -0.0772 |
| RRIRFRPPRLPRPRPRPDCWPRP | -0.0344 |
| RRIRLRPPRLPRPRPRPFYRPRP | -0.295 |
| RRIRTRPPRLPRPRPRPDIGPRP | -0.187 |
| RRIRFRPPRLPRPRPRPKVHPRP | 0.146 |

| Sequence | shrunken log2 fold change |
| --- | --- |
| RRIRKRPPRLPRPRPRPAEDPRP | 1.33 |
| RRIRCRPPRLPRPRPRPVEKPRP | 0.551 |
| RRIRCRPPRLPRPRPRPEWQPRP | -0.0271 |
| RRIRTRPPRLPRPRPRPNYDPRP | -0.493 |
| RRIRGRPPRLPRPRPRPTEWPRP | 1.23 |
| RRIRHRPPRLPRPRPRPNTVPRP | 0.0932 |
| RRIRGRPPRLPRPRPRPFGQPRP | 0.368 |
| RRIRRRPPRLPRPRPRPPNWPRP | 0.581 |
| RRIRQRPPRLPRPRPRPGNTPRP | 0.0649 |
| RRIRIRPPRLPRPRPRPWAIPRP | -0.0196 |
| RRIRMRPPRLPRPRPRPGGYPRP | 0.0413 |
| RRIRPRPPRLPRPRPRPRCTPRP | 0.753 |
| RRIRKRPPRLPRPRPRPAVNPRP | -0.0383 |
| RRIRVRPPRLPRPRPRPSKGPRP | -0.276 |
| RRIRERPPRLPRPRPRPFDCPRP | -0.0657 |
| RRIRTRPPRLPRPRPRPYIVPRP | -1.04 |
| RRIRSRPPRLPRPRPRPDENPRP | 0.11 |
| RRIRGRPPRLPRPRPRPMVCPRP | 0.55 |
| RRIRVRPPRLPRPRPRPGAKPRP | 0.189 |
| RRIRIRPPRLPRPRPRPNIIPRP | -0.719 |
| RRIRARPPRLPRPRPRPYFEPRP | -0.577 |
| RRIRMRPPRLPRPRPRPRMSPRP | 0.353 |
| RRIRKRPPRLPRPRPRPRVLPRP | 0.498 |
| RRIRIRPPRLPRPRPRPPPAPRP | 0.543 |
| RRIRIRPPRLPRPRPRPVTRPRP | 0.0796 |

| Sequence | shrunken log2 fold change |
| --- | --- |
| RRIRPRPPRLPRPRPRPSDVPRP | -0.249 |
| RRIRFRPPRLPRPRPRPWFCPRP | 3.7 |
| RRIRPRPPRLPRPRPRPFVTPRP | -0.102 |
| RRIRSRPPRLPRPRPRPDTHPRP | -0.448 |
| RRIRCRPPRLPRPRPRPWETPRP | 0.323 |
| RRIRVRPPRLPRPRPRPANVPRP | -0.597 |
| RRIRCRPPRLPRPRPRPDMTPRP | -0.00325 |
| RRIRARPPRLPRPRPRPVELPRP | 0.0828 |
| RRIRYRPPRLPRPRPRPIYIPRP | -0.673 |
| RRIRQRPPRLPRPRPRPESYPRP | -0.0748 |
| RRIRSRPPRLPRPRPRPVVHPRP | -0.126 |
| RRIRQRPPRLPRPRPRPEQWPRP | 0.222 |
| RRIRRRPPRLPRPRPRPNFKPRP | 0.092 |
| RRIRLRPPRLPRPRPRPTPTPRP | 0.786 |
| RRIRKRPPRLPRPRPRPCHYPRP | -0.117 |
| RRIRNRPPRLPRPRPRPWKIPRP | 0.089 |
| RRIRKRPPRLPRPRPRPMNSPRP | -0.0163 |
| RRIRERPPRLPRPRPRPGATPRP | 0.148 |
| RRIRGRPPRLPRPRPRPNLCPRP | -0.0201 |
| RRIRFRPPRLPRPRPRPEPRPRP | 0.81 |
| RRIRQRPPRLPRPRPRPMDNPRP | -0.367 |
| RRIRARPPRLPRPRPRPNPGPRP | 0.462 |
| RRIRYRPPRLPRPRPRPAAIPRP | -0.092 |
| RRIRKRPPRLPRPRPRPNMPPRP | 0.145 |
| RRIRQRPPRLPRPRPRPEKFPRP | -0.029 |
